Laboratory results published in paper PMC11784139.

Experiments:
[1] = target: 6 × His-tagged APR1 (AlmA Positive Regulator) (Acinetobacter venetianus RAG-1); assay: cross-linking; 0.1% glutaraldehyde added to 5 µg purified 6 × His-tagged APR1 in 50 mM Tris-HCl (pH 8.0), 10% glycerol; 0.5–1 h at 30°C; analysed by SDS-PAGE
[2] = tested on: T1, 6xHis-APR1 (Acinetobacter venetianus RAG-1), ORF:d17a4b85; assay: EMSA; settings: EMSA: 5 mM Tris-HCl pH 7.5, 0.1 mM EDTA, 5 mM MgCl2, 10 mM KCl, 0.2 mM DTT, 30 C, 30 min, native PAGE in 0.5x TBE; MST: 50 mM PBS pH 7.2-7.4, temperature not …
T1 sequence: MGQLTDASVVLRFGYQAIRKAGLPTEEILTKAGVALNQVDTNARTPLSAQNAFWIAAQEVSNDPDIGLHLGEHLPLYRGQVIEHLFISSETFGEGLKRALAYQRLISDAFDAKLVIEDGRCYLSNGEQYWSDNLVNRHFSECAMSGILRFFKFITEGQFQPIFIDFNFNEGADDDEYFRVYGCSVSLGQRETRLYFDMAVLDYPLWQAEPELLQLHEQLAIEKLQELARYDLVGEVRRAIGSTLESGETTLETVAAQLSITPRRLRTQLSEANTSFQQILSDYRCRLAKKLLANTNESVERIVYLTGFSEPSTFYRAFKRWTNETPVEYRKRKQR

[3] = tested on: 6xHis-APR1 (Acinetobacter venetianus RAG-1); assay: MST; settings: EMSA: 5 mM Tris-HCl pH 7.5, 0.1 mM EDTA, 5 mM MgCl2, 10 mM KCl, 0.2 mM DTT, 30 C, 30 min, native PAGE in 0.5x TBE; MST: 50 mM PBS pH 7.2-7.4, temperature not …

With “6 × His-tagged APR1 (AlmA Positive Regulator) (natural protein)” the stoichiometry N [1] was 2.

With “AGCCTACCTGATGATCAAATTGGAAAGGCGCAAATTATAGTCAATTTATTTGAAATTTACAAGACGCTCTCTTAGCAAAGCTTGTACAGATGAATTGGAAAAAACTGTCAGACAATCCTCATTTTTTTTTAACAAAAGAAGCAGAATAGTGTTGTCAGTTTGGTCAATCAACGTTAATCTAAAATTATTGTTTATTGTCACAATAACGTATCTACAGGGAAGGGCACTGC (double strand) [apR1 promoter]” the binding [2] was “binds”.

almA promoter gave a Kd [3] of 97.2 nM.
